Results taken from patent US20120129720, “APTAMER THAT RECOGNIZES PEPTIDE” (KANAGAWA PREFECTURAL HOSPITAL ORGANIZATION, published 2012).

Legend:
[1] = target: T1, His-MIF (His-tag/T7 gene 10 leader/Xpress-MIF fusion) (UniProt P14174 P14174:1-115); assay: SPR; 600 nM His-MIF; data not shown; conditions: MIF 115 aa; ATGen
T1 chain: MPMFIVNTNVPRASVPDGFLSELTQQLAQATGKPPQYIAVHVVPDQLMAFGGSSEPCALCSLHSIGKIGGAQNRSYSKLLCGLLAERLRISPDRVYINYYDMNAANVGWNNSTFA

[2] = target: T1, His-MIF (His-tag/T7 gene 10 …); assay: SPR; 600 nM His-MIF; conditions: MIF 115 aa; ATGen
Procedure: (§1) A molecular interaction between each of the RNA aptamers and each of fusion proteins, i.e., a binding ability of each of the RNA aptamers to each of the fusion proteins was analyzed using surface plasmon resonance. The analysis of the binding ability was performed using BiacoreX (GE Healthcare UK Ltd.) according to the instruction thereof. Specifically, first, polyadenine having 20 bases was added to the 3′-end of the RNA aptamer. Thus, polyadenine-added RNA aptamer was prepared. This was then heated at 95° C. for 5 minutes and rapidly cooled on ice. Biotinylated polythymine having 20 bases obtained by biotinylating the 5′-end of polythymine had been bound to a streptavidin chip (Sensor chip SA, GE Healthcare UK Ltd.). The polyadenine-added RNA aptamer was introduced into a flow cell on the streptavidin chip using a running buffer. At this stage, the polyadenine-added RNA aptamer was immobilized on the chip via the biotinylated polythymine by complementary binding between poly A of the polyadenine-added RNA aptamer and the biotinylated polythymine. The polyadenine-added RNA aptamer was caused to bind to the biotinylated polythymine until a resonance unit (RU) (resonance unit; 1 RU=1 pg/mm²) reaches 700 RU. Subsequently, HBS (Hepes Buffered Saline) containing the fusion protein with a predetermined concentration was introduced into the chip using a running buffer, and a signal (RU) was measured. The composition of the running buffer includes 10 mmol/L HEPES (4-(2-hydroxyethyl)-1-piperazine ethanesulfonic acid), 150 mmol/L sodium chloride, 0.1 mmol/L magnesium acetate, and 0.01% Tween (registered trademark) 20 (pH 7.2). As a control, an introduction of the fusion protein and a measurement of a signal were performed in the same manner as described above using a chip to which biotinylated polythymine had been bound, on which no polyadenine-added RNA aptamer had been immobilized.
A binding ability of each of these RNA aptamers to His-MIF was analyzed by surface plasmon resonance in the same manner as in “1. (4) Molecular interaction analysis” of Example 1.

[3] = target: T1, His-MIF (His-tag/T7 gene 10 …); assay: SPR; same as shot47; conditions: MIF 115 aa, ATGen, stem-loop
Procedure: as §1, with “The polyadenine-added RNA aptamer was caused to bind to the biotinylated polythymine until a resonance unit (RU) (resonance unit; 1 RU=1 pg/mm²) reaches 700 RU.” left out, “The composition of the running buffer includes 10 mmol/L HEPES (4-(2-hydroxyethyl)-1-piperazine ethanesulfonic acid), 150 mmol/L sodium chloride, 0.1 mmol/L magnesium acetate, and 0.01% Tween (registered trademark) 20 (pH 7.2). As a control, an introduction of the fusion protein and a measurement of a signal were performed in the same manner as described above using a chip to which biotinylated polythymine had been bound, on which no polyadenine-added RNA aptamer had been immobilized.” left out
A binding ability of each of downsized RNA aptamers to His-MIF as a fusion protein was analyzed by the molecular interaction analysis. […]

[4] = target: T1, His-MIF (His-tag/T7 gene 10 …); assay: SPR; 600 nM His-MIF; conditions: MIF 115 aa, ATGen
Procedure: as §1
A binding ability of each of the RNA pools in the respective rounds to His-MIF was analyzed by surface plasmon resonance in the same manner as in “1. (4) Molecular interaction analysis” of Example 1. […] N40 (control RNA) also was analyzed in the same manner as mentioned above.

[5] = target: T1, His-MIF (His-tag/T7 gene 10 …); assay: SPR; 600 nM His-MIF; excellent binding; conditions: MIF 115 aa; ATGen
Procedure: as §1, with “The polyadenine-added RNA aptamer was caused to bind to the biotinylated polythymine until a resonance unit (RU) (resonance unit; 1 RU=1 pg/mm²) reaches 700 RU.” left out, “The composition of the running buffer includes 10 mmol/L HEPES (4-(2-hydroxyethyl)-1-piperazine ethanesulfonic acid), 150 mmol/L sodium chloride, 0.1 mmol/L magnesium acetate, and 0.01% Tween (registered trademark) 20 (pH 7.2). As a control, an introduction of the fusion protein and a measurement of a signal were performed in the same manner as described above using a chip to which biotinylated polythymine had been bound, on which no polyadenine-added RNA aptamer had been immobilized.” left out
A binding ability of each of these RNA aptamers to His-MIF was analyzed by surface plasmon resonance in the same manner as in “1. […]

[6] = target: T1, His-MIF (His-tag/T7 gene 10 …); assay: SPR; 10 mM HEPES, 150 mM NaCl, 0.1 mM Mg acetate, 0.01% Tween 20, pH 7.2; RNA immobilised; conditions: MIF 115 aa; ATGen; label: biotin-T20 hybridised to tail; stem-loop
Procedure: as §1, with “The polyadenine-added RNA aptamer was caused to bind to the biotinylated polythymine until a resonance unit (RU) (resonance unit; 1 RU=1 pg/mm²) reaches 700 RU.” left out, “The composition of the running buffer includes 10 mmol/L HEPES (4-(2-hydroxyethyl)-1-piperazine ethanesulfonic acid), 150 mmol/L sodium chloride, 0.1 mmol/L magnesium acetate, and 0.01% Tween (registered trademark) 20 (pH 7.2). As a control, an introduction of the fusion protein and a measurement of a signal were performed in the same manner as described above using a chip to which biotinylated polythymine had been bound, on which no polyadenine-added RNA aptamer had been immobilized.” left out

B1: #7009 (ssRNA)
RNA: GGGACGCUCACGUACGCUCAUGAUUGAAUGGGCGAAUCGACCUUACCGGUUUUCUGCAACUCAGUGCCUGGACGUGCAGU
modifications: 3' A20 tail for capture
Does B1 bind [1]?
Result: binds

B2: His_4 (ssRNA)
RNA: GGGACGCUCACGUACGCUCAUAAGGGUGUACUGGCGAUUGUUGGGACGCACUUCAAUUUGUCAGUGCCUGGACGUGCAGU
modifications: 3' A20 tail for capture
Does B2 bind [2]?
Result: binds

Does GGGUAUAUUGGCGCCUUCGUGGAAUGUCAGUGCCUGG (ssRNA, 3' A20 tail for capture) [shot47sss] bind ([3]; label: biotin-T20 hybridised to tail (ELISA))?
Result: binds

B3: #701 (ssRNA)
RNA: GGGACGCUCACGUACGCUCACCGGGUUAUUGGCGCAAUAUUGGUAUCCUGUAUUGGUCUGUCAGUGCCUGGACGUGCAGU
modifications: 3' A20 tail for capture
Which binding signal [4] does the source give for B3 here?
Its binding signal is 1.32 His-MIF/RNA bonds.

B4: His_1 (ssRNA)
RNA: GGGACGCUCACGUACGCUCAGGUGAACUGGUCCGCAUUUAGCUUUCUUAUUUGCGGGUAUUCAGUGCCUGGACGUGCAGU
modifications: 3' A20 tail for capture
Does B4 bind [5]?
Result: binds

B5: #733 (ssRNA)
RNA: GGGACGCUCACGUACGCUCACUUCCCUAGACCCUCCAGGUUACAGGCGCCGCCCGGAAUGUCAGUGCCUGGACGUGCAGU
modifications: 3' A20 tail for capture
How did the binding signal [4] turn out when B5 was run?
The binding signal was 0.86 His-MIF/RNA bonds.

B6: #47s (ssRNA)
RNA: GGGUACGCUCAGGUAUAUUGGCGCCUUCGUGGAAUGUCAGUGCCUGGACGUGCAGU
modifications: 3' A20 tail for capture
Does B6 bind [3]?
Result: binds

B7: #704 (ssRNA)
RNA: GGGACGCUCACGUACGCUCAUGUUCCUUUGGGUUAUUGGCUCCUUGUUGACCAGGGGAUGUCAGUGCCUGGACGUGCAGU
modifications: 3' A20 tail for capture
Which binding signal [4] does the source give for B7 here?
The binding signal was 0.96 His-MIF/RNA bonds.

B8: #727 (ssRNA)
RNA: GGGACGCUCACGUACGCUCACUCAGGUGAUUGGCGCUAUUUAUCGAUCGAUAAUUGAAUGUCAGUGCCUGGACGUGCAGU
modifications: 3' A20 tail for capture
With B8 as the binder, how does the binding signal [4] read?
Its binding signal is 1.05 His-MIF/RNA bonds.

B9: #708 (ssRNA)
RNA: GGGACGCUCACGUACGCUCACGGUUAUUGGCGGAGGAUCUGUCAUGGCAUGCCUCGACUGUCAGUGCCUGGACGUGCAGU
modifications: 3' A20 tail for capture
For B9, which binding signal [4] is on record?
Its binding signal is 1.16 His-MIF/RNA bonds.

B10: #716 (ssRNA)
RNA: GGGACGCUCACGUACGCUCACCUGUUUUGUCUAGGUUUAUUGGCGCUUAUUCCUGGAAUGUCAGUGCCUGGACGUGCAGU
modifications: 3' A20 tail for capture
Which binding signal [4] does the source give for B10 here?
Its binding signal is 0.99 His-MIF/RNA bonds.

B11: shot47 (ssRNA)
RNA: GGGACGCUCACGUACGCUCACGUCCGAUCGAUACUGGUAUAUUGGCGCCUUCGUGGAAUGUCAGUGCCUGGACGUGCAGU
modifications: 3' A20 tail for capture
How did the binding signal ([4]; label: biotin-T20 hybridised to tail, stem-loop) turn out when B11 was run?
The binding signal was 1.88 His-MIF/RNA bonds.

And the Kd [6]?
Its Kd is 3.78 pM.

B12: #713 (ssRNA)
RNA: GGGACGCUCACGUACGCUCACAACACUCGAAGGGUUUAUUGGCCCCACCAUGGUGGAAUGUCAGUGCCUGGACGUGCAGU
modifications: 3' A20 tail for capture
With B12 as the binder, how does the binding signal [4] read?
The binding signal was 0.88 His-MIF/RNA bonds.

B13: #7062 (ssRNA)
RNA: GGGACGCUCACGUACGCUCAUCUCGCCGCAUUUCCAGGUUUUUUGGCGCUUAUGAAUGAUCAGUGCCUGGACGUGCAGU
modifications: 3' A20 tail for capture
Does B13 bind [1]?
Result: binds

B14: #714 (ssRNA)
RNA: GGGACGCUCACGUACGCUCAGGUUUAUUGGUGCCGUGUAGUGGAAUAUCAGUGCCUGGACGUGCAGU
modifications: 3' A20 tail for capture
B14 was tested. Which binding signal [4] did it give?
Its binding signal is 1.01 His-MIF/RNA bonds.

B15: #7054 (ssRNA)
RNA: GGGACGCUCACGUACGCUCAAAGUGUCUGCAAGUCUACCGGUUUAUUGGCCACUCCGUUUUCAGUGCCUGGACGUGCAGU
modifications: 3' A20 tail for capture
Does B15 bind [1]?
Result: binds

B16: His_3 (ssRNA)
RNA: GGGACGCUCACGUACGCUCAGGUGUACUGGCACUACUGAAAUUUCAUUUGAGUAGGUCUGUCAGUGCCUGGACGUGCAGU
modifications: 3' A20 tail for capture
Does B16 bind [2]?
Result: binds

B17: His_2 (ssRNA)
RNA: GGGACGCUCACGUACGCUCAGGUGAAUUGGCCGCCGUUCUUUCCGUGGAAUGACGCGAUGUCAGUGCCUGGACGUGCAGU
modifications: 3' A20 tail for capture
Does B17 bind [2]?
Result: binds

B18: His_6 (ssRNA)
RNA: GGGACGCUCACGUACGCUCAGGUGUAUUGGAUUUGCUCCGAGGGUGUAGACCCCACAGAUUCAGUGCCUGGACGUGCAGU
modifications: 3' A20 tail for capture
Does B18 bind [2]?
Result: binds

B19: #746 (ssRNA)
RNA: GGGACGCUCACGUACGCUCAGGUGAAUUGGCACUUCUUUAUCUACGGAUCGAGUCGGAUGUCAGUGCCUGGACGUGCAGU
modifications: 3' A20 tail for capture
Which binding signal [4] does the source give for B19 here?
The binding signal was 0.5 His-MIF/RNA bonds.

B20: His_5 (ssRNA)
RNA: GGGACGCUCACGUACGCUCAGAACCCGUAUUGGUCACAGGUGGAUUGGUCUAUAUUGUUAUCAGUGCCUGGACGUGCAGU
modifications: 3' A20 tail for capture
Does B20 bind [2]?
Result: binds

B21: His_10 (ssRNA)
RNA: GGGACGCUCACGUACGCUCAUUAGCUUAGCUUCAUGCCCGGGUGUACUGGAGAUCUCUUAUCAGUGCCUGGACGUGCAGU
modifications: 3' A20 tail for capture
Does B21 bind [2]?
Result: binds

B22: #718 (ssRNA)
RNA: GGGACGCUCACGUACGCUCACUUCUUUCCCACUCACGUCUCGGUUUUAUUGGUCCAGUUUUCAGUGCCUGGACGUGCAGU
modifications: 3' A20 tail for capture
Which binding signal [4] does the source give for B22 here?
Its binding signal is 0.75 His-MIF/RNA bonds.
